Key:
Test in all cases: holdup assay
Set-up in all cases: key: below the threshold = too weak to quantify, mostly under pKd 3.1 to 4
[1] = molecular target: AHNAK1, Q09666
[2] = molecular target: T1, APBA1_1, Q02410
T1 sequence (Q02410 651-752, limits assumed, looked up): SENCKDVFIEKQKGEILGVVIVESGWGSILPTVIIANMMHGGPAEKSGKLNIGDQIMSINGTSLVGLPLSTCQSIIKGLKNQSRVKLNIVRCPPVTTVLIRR

[3] = molecular target: ARHGEF12, Q9NZN5-2
[4] = molecular target: CASK, O14936
[5] = molecular target: T2, DLG3_3, Q92796
T2 sequence (Q92796 374-475, limits assumed, looked up): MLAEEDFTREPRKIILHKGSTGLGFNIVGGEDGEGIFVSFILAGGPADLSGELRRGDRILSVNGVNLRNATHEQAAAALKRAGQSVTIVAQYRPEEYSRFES

[6] = molecular target: GORASP1, Q9BQQ3
Chain of GORASP1, Q9BQQ3 (Q9BQQ3 1-208): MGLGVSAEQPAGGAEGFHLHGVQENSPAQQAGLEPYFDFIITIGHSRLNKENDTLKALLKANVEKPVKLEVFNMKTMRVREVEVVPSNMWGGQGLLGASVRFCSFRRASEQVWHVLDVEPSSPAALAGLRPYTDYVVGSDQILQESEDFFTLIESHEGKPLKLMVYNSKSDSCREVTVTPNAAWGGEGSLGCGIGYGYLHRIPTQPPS

[7] = molecular target: T3, GRIP1_2, Q9Y3R0
T3 sequence (Q9Y3R0 145-248, limits assumed, looked up): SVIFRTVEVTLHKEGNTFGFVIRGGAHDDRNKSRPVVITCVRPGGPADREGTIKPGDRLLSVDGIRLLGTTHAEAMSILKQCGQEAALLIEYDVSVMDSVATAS

[8] = molecular target: T4, GRIP1_7, Q9Y3R0
T4 sequence (Q9Y3R0 999-1096, limits assumed, looked up): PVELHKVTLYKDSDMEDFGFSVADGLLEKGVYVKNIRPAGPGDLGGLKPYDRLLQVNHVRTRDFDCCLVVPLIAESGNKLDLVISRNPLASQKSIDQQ

[9] = molecular target: HTRA2, O43464
Chain of HTRA2, O43464 (O43464 355-458): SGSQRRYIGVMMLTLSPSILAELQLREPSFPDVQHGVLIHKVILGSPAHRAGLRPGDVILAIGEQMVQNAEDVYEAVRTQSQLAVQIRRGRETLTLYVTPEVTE

[10] = molecular target: Inadl_1, Q8NI35
Chain of Inadl_1, Q8NI35 (Q8NI35 113-229): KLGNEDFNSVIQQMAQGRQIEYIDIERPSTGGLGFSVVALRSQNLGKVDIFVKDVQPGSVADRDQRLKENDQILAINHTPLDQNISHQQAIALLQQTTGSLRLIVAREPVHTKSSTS

[11] = molecular target: Inadl_8, Q8NI35
Chain of Inadl_8, Q8NI35 (Q8NI35 1425-1530): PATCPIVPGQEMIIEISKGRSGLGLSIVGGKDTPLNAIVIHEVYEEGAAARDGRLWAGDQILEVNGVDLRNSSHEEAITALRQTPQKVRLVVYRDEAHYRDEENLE

[12] = molecular target: T5, LIN7B, Q9HAP6
T5 sequence (Q9HAP6 88-185, limits assumed, looked up): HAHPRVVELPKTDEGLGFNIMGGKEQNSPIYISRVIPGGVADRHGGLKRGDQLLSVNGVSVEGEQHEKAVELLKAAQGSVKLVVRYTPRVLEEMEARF

[13] = molecular target: T6, LIN7C, Q9NUP9
T6 sequence (Q9NUP9 88-185, limits assumed, looked up): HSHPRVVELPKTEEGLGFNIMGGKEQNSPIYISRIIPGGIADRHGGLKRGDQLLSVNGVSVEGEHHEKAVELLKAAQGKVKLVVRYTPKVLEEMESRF

[14] = molecular target: LNX1_1, Q8TBB1
Chain of LNX1_1, Q8TBB1 (Q8TBB1 261-371): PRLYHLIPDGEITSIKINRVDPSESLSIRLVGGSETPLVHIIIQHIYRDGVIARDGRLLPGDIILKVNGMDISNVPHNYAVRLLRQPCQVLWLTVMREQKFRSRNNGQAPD

[15] = molecular target: MAGI2_3, Q86UL8
Chain of MAGI2_3, Q86UL8 (Q86UL8 600-682): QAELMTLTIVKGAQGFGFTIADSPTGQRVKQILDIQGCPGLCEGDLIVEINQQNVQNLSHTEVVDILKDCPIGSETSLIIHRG

[16] = molecular target: MAGI2_5, Q86UL8
Chain of MAGI2_5, Q86UL8 (Q86UL8 915-1017): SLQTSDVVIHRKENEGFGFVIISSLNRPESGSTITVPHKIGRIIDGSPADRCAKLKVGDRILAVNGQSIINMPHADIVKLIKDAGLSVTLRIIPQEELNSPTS

[17] = molecular target: MAGI3_2, Q5TCQ9
Chain of MAGI3_2, Q5TCQ9 (Q5TCQ9 398-503): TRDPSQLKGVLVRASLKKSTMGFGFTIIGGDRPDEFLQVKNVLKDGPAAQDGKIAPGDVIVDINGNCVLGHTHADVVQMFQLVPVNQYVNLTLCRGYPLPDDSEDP

[18] = molecular target: MAST1, Q9Y2H9
Chain of MAST1, Q9Y2H9 (Q9Y2H9 962-1065): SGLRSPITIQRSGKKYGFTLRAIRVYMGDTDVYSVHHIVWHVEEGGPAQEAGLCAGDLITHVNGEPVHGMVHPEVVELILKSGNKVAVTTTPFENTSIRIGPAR

[19] = molecular target: MAST2, Q6P0Q8
Chain of MAST2, Q6P0Q8 (Q6P0Q8 1099-1202): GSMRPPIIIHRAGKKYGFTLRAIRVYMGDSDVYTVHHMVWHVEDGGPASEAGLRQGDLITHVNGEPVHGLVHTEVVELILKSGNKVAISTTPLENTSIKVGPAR

[20] = molecular target: NHERF2_2, Q15599
Chain of NHERF2_2, Q15599 (Q15599 142-238): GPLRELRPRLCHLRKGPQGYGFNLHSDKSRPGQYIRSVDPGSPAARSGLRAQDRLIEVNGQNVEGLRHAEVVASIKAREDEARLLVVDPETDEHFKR

[21] = molecular target: NHERF4_1, Q86UT5-2
Chain of NHERF4_1, Q86UT5-2 (Q86UT5 other isoform, or with tags, fused parts or gaps): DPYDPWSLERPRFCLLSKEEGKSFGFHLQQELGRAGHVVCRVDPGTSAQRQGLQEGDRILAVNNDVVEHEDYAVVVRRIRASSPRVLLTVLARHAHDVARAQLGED

[22] = molecular target: PARD3_3, Q8TEW0
Chain of PARD3_3, Q8TEW0 (Q8TEW0 582-685): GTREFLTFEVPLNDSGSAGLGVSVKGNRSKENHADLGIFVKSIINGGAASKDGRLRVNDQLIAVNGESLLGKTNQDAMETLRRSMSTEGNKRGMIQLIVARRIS

[23] = molecular target: PDLIM1, O00151
Chain of PDLIM1, O00151 (O00151 1-87): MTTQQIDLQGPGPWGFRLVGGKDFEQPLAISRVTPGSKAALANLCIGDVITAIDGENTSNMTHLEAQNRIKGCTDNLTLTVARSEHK

[24] = molecular target: PTPN3, P26045
Chain of PTPN3, P26045 (P26045 505-587): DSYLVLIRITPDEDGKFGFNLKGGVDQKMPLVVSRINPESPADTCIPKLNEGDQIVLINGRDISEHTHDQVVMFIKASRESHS

[25] = molecular target: SCRIB_1, Q14160
Chain of SCRIB_1, Q14160 (Q14160 718-814): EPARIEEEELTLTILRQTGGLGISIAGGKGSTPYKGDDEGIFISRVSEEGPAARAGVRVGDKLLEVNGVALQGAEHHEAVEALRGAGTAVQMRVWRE

[26] = molecular target: SCRIB_2, Q14160
Chain of SCRIB_2, Q14160 (Q14160 857-960): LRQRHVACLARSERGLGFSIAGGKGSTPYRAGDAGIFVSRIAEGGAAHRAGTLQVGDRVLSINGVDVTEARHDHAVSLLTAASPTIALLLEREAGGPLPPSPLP

[27] = molecular target: SCRIB_3, Q14160
Chain of SCRIB_3, Q14160 (Q14160 999-1103): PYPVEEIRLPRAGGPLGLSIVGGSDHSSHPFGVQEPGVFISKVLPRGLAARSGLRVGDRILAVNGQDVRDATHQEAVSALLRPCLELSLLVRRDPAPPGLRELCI

[28] = molecular target: T7, SNTG2, Q9NY99
T7 sequence (Q9NY99 68-166, limits assumed, looked up): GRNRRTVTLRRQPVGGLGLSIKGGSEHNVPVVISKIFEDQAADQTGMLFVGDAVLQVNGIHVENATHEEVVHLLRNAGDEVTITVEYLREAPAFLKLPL

[29] = molecular target: SNX27, Q96L92
[30] = molecular target: TJP1_2, Q07157
Chain of TJP1_2, Q07157 (Q07157 181-274): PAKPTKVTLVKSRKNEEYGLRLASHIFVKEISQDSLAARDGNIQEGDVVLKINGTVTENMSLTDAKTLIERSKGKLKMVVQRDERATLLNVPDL

[31] = molecular target: T8, TJP3_3, O95049
T8 sequence (O95049 375-456, limits assumed, looked up): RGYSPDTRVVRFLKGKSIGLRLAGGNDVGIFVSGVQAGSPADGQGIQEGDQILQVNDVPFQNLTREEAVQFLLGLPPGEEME

[32] = plain residues with an end cap or a label only (N-terminal biotin on a linker: ttds)
[33] = plain residues with an end cap or a label only (N-terminal biotin on a linker: ado-ado)

Chain of ARHGEF12, Q9NZN5-2 (Q9NZN5 other isoform, or with tags, fused parts or gaps): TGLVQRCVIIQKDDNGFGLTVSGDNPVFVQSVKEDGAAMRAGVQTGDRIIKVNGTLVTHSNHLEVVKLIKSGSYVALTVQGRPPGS
Chain of CASK, O14936 (O14936 487-570): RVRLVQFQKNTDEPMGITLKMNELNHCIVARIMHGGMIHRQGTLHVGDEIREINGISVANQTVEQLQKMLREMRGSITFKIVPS
Chain of AHNAK1, Q09666 (Q09666 4-100): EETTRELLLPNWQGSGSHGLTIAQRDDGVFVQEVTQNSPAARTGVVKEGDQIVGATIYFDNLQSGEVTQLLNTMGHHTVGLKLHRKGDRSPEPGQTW

## CNTVTVETVV [MAS1, P04201]
[1]; [32]
  pKd: below the threshold
[2]; [32]
  pKd: below the threshold
[3]; [32]
  pKd: below the threshold
[4]; [32]
  pKd: below the threshold
[5]; [32]
  pKd: below the threshold
[6]; [32]
  pKd: below the threshold
[7]; [32]
  pKd: 3.61
[8]; [32]
  pKd: below the threshold
[9]; [32]
  pKd: below the threshold
[10]; [32]
  pKd: below the threshold
[11]; [32]
  pKd: below the threshold
[12]; [32]
  pKd: below the threshold
[13]; [32]
  pKd: 3.64
[14]; [32]
  pKd: 3.52
[15]; [32]
  pKd: 3.63
[16]; [32]
  pKd: 3.95
[17]; [32]
  pKd: 3.78
[18]; [32]
  pKd: 3.58
[19]; [32]
  pKd: 3.92
[20]; [32]
  pKd: below the threshold
[21]; [32]
  pKd: below the threshold
[22]; [32]
  pKd: below the threshold
[23]; [32]
  pKd: below the threshold
[24]; [32]
  pKd: 3.8
[25]; [32]
  pKd: below the threshold
[26]; [32]
  pKd: 3.47
[27]; [32]
  pKd: below the threshold
[28]; [32]
  pKd: 3.93
[29]; [32]
  pKd: 4.57
[30]; [32]
  pKd: below the threshold
[31]; [32]
  pKd: 3.7

## NYWPGKETQL [SLCO1C1, Q9NYB5]
[1]; [32]
  pKd: below the threshold
[2]; [32]
  pKd: below the threshold
[3]; [32]
  pKd: 4.94
[4]; [32]
  pKd: below the threshold
[5]; [32]
  pKd: 4.25
[6]; [32]
  pKd: below the threshold
[7]; [32]
  pKd: below the threshold
[8]; [32]
  pKd: below the threshold
[9]; [32]
  pKd: below the threshold
[10]; [32]
  pKd: 4.12
[11]; [32]
  pKd: below the threshold
[12]; [32]
  pKd: 4.68
[13]; [32]
  pKd: 4.93
[14]; [32]
  pKd: below the threshold
[15]; [32]
  pKd: below the threshold
[16]; [32]
  pKd: 3.87
[17]; [32]
  pKd: 4.75
[18]; [32]
  pKd: 5.26
[19]; [32]
  pKd: 6.05
[20]; [32]
  pKd: 4.69
[21]; [32]
  pKd: 4.04
[22]; [32]
  pKd: below the threshold
[23]; [32]
  pKd: 3.73
[24]; [32]
  pKd: 5.42
[25]; [32]
  pKd: 5.23
[26]; [32]
  pKd: 4.24
[27]; [32]
  pKd: 5.6
[28]; [32]
  pKd: 5.28
[29]; [32]
  pKd: 5.24
[30]; [32]
  pKd: below the threshold
[31]; [32]
  pKd: below the threshold

## EDLTKNHDEL [RCN1, Q15293]
[1]; [33]
  pKd: below the threshold
[2]; [33]
  pKd: below the threshold
[3]; [33]
  pKd: 3.51
[4]; [33]
  pKd: below the threshold
[5]; [33]
  pKd: below the threshold
[6]; [33]
  pKd: below the threshold
[7]; [33]
  pKd: below the threshold
[8]; [33]
  pKd: below the threshold
[9]; [33]
  pKd: below the threshold
[10]; [33]
  pKd: below the threshold
[11]; [33]
  pKd: below the threshold
[12]; [33]
  pKd: below the threshold
[13]; [33]
  pKd: below the threshold
[14]; [33]
  pKd: 3.6
[15]; [33]
  pKd: below the threshold
[16]; [33]
  pKd: below the threshold
[17]; [33]
  pKd: below the threshold
[18]; [33]
  pKd: 3.91
[19]; [33]
  pKd: below the threshold
[20]; [33]
  pKd: 3.74
[21]; [33]
  pKd: 3.93
[22]; [33]
  pKd: below the threshold
[23]; [33]
  pKd: 3.52
[24]; [33]
  pKd: below the threshold
[25]; [33]
  pKd: 3.5
[26]; [33]
  pKd: 3.54
[27]; [33]
  pKd: 3.57
[28]; [33]
  pKd: below the threshold
[29]; [33]
  pKd: 4
[30]; [33]
  pKd: below the threshold
[31]; [33]
  pKd: below the threshold
